From patent US20250109206A1 come the findings set out here.

Assay [1] has as its target human recombinant CD3 δε heterodimer (human) (UniProt P07766). In words: SPR (Biacore 8K), Fab captured, CD3 δε heterodimer as analyte.
In assay [2] the target is cynomolgus monkey recombinant CD3 δε heterodimer (cynomolgus) (UniProt Q95LI5). In words: SPR (Biacore), Fab captured on anti-human Fab chip, cyno CD3 δε heterodimer as analyte, 1:1 binding fit.
The target of assay [3] is human recombinant CD3 δε heterodimer (human) (UniProt P07766). In words: SPR (Biacore), Fab captured on anti-human Fab chip, human CD3 δε heterodimer as analyte, 1:1 binding fit. A general note: In SPR one partner is held on a chip, and binding of the other changes the refractive index at the surface.
Chain of human recombinant CD3 δε heterodimer (human) (P07766 23-126, stated change not applied, chain 1 of 2): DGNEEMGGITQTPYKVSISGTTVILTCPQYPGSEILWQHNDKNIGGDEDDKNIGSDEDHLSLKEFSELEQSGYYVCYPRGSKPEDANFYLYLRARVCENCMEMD
Chain of human recombinant CD3 δε heterodimer (human) (P04234 22-105, stated change not applied, chain 2 of 2, further chain): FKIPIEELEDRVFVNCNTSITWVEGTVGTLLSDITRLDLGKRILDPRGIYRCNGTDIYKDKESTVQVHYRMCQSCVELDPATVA

Chain of cynomolgus monkey recombinant CD3 δε heterodimer (cynomolgus) (Q95LI5 22-117, stated change not applied, chain 1 of 2): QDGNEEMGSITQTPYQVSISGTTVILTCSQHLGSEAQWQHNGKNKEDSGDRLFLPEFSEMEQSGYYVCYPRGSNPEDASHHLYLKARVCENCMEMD
Chain of cynomolgus monkey recombinant CD3 δε heterodimer (cynomolgus) (Q95LI8 22-105, stated change not applied, chain 2 of 2, further chain): as the sequence (P04234 22-105, stated change not applied, chain 2 of 2, further chain) above, with I5V, N15K, I20V, S32T, D33N, I34N, T64A, S74N, V83L counted along it

B1: Anti-CD3 Fab-001 (Fab, V domains shown)
VH: EVQLVESGGGLVQPGGSLRLSCAASGFTFNTYAMNWVRQAPGKGLEWVARIRSKYNNYATYYADSVKDRFTISRDDSQSILYLQMNSLKTEDTAVYYCVRHGNFGNSYVSWFAYWGQGTLVTVSS
VL: QAVVTQEPSLTVSPGGTVTLTCRSSTGAVTTSNYANWVQQKPDHLPRALIGGTNKRAPGTPARFSGSLLGDKAALTLSGVQPEDEAEYYCALWYSNLWVFGGGTKLTVL
Regarding B1, the Kd (usually the equilibrium constant for the complex coming apart) in assay [1] came to 29 nM. In assay [2], the Kd was 28.4 nM; the koff – broadly, the rate constant with which the complex falls apart – was 0.00448 s⁻¹; the kon (commonly the rate constant with which the complex forms) is 158000 M⁻¹ s⁻¹. For the same molecule, the kon in assay [3] amounted to 162000 M⁻¹ s⁻¹.

B2: Anti-CD3 Fab-002 (Fab, V domains shown)
VH: EVQLVESGGGLVQPGGSLRLSCAASGFTFNTYAMNWVRQAPGKGLEWVGRIRSKYNNYATYYADSVKGRFTISRDDSKNSLYLQMNSLKTEDTAVYYCARHGNFGNSYVSWFAYWGQGTLVTVSS
VL: QAVVTQEPSLTVSPGGTVTLTCRSSTGAVTTSNYANWVQQKPDHLPRALIGGTNKRAPGVPARFSGSLLGDKAALTISGAQPEDEAIYYCALWYSNLWVFGGGTKLTVL
Consider B2, for which the Kd in assay [1] came out at 46 nM. For the same molecule, in assay [2], the Kd amounted to 71.8 nM, the koff was 0.0113 s⁻¹ and the kon is 157000 M⁻¹ s⁻¹. In addition, the kon in assay [3] is 433000 M⁻¹ s⁻¹.
